Data published in paper PMC10702470, “Activation of Csm6 ribonuclease by cyclic nucleotide binding: in an emergency, twist to open” (Nucleic Acids Research, 2023).

How the values were obtained:
StCsm6’ (Csm6’) [1] = molecular target: T1, StCsm6’ (Csm6’) (Streptococcus thermophilus, UniProt A0A0A7HFE6); experiment: fluorogenic RNase activation assay (RNaseAlert FAM); format: biochemical; settings: activator, CARF domain; 1 µM dimer, 125 nM reporter RNA, MES pH 6.0, 30 mM NaCl, 20% glycerol, 45 °C, 30 min
T1 construct: full length, 386 residues, CARF 1-173, 6H 174-239, HEPN 240-386; E. coli C43(DE3), pEV5HisTEV, 8-His tag cut by TEV; symmetrical homodimer
T1 sequence (A0A0A7HFE6 1-386): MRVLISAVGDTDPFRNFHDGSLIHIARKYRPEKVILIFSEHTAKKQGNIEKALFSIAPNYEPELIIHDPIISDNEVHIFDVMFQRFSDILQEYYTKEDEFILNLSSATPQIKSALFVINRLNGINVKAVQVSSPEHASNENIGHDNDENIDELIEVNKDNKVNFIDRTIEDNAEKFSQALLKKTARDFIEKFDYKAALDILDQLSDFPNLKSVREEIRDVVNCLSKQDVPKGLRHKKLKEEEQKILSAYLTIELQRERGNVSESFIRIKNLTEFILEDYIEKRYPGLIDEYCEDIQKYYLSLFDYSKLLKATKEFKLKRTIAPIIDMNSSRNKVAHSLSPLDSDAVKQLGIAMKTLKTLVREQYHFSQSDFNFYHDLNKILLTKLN

StCsm6’ (Csm6’) [2] = molecular target: T1, StCsm6’ (Csm6’); experiment: X-ray crystallography, […] Å; format: binding; settings: CARF domain site at dimer; occupancy 0.50, mixed with cleaved product
[3] = molecular target: the molecule itself; experiment: crystal structure; StCsm6’ co-crystallised with cA6 (1:1.5 molar ratio), 1.96 Å; homodimer
[4] = molecular target: the molecule itself; experiment: pulse dipolar EPR spectroscopy (PELDOR/DEER); spin-labelled protein at 50 μM in deuterated buffer with 50% glycerol, frozen solution, 50 K, Q-band, with and without 25 μM cA6; distances between spin labels in the two monomers

Nc1ncnc2c1ncn2[C@@H]1O[C@@H]2COP(=O)(O)O[C@H]3[C@@H](O)[C@H](n4cnc5c(N)ncnc54)O[C@@H]3COP(=O)(O)O[C@H]3[C@@H](O)[C@H](n4cnc5c(N)ncnc54)O[C@@H]3COP(=O)(O)O[C@H]3[C@@H](O)[C@H](n4cnc5c(N)ncnc54)O[C@@H]3COP(=O)(O)O[C@H]3[C@@H](O)[C@H](n4cnc5c(N)ncnc54)O[C@@H]3COP(=O)(O)O[C@H]3[C@@H](O)[C@H](n4cnc5c(N)ncnc54)O[C@@H]3COP(=O)(O)O[C@H]2[C@H]1O [cA6, cyclic hexa-adenylate]
concentration for full activation (StCsm6’ (Csm6’) [1]): ~ 100 nM | X-ray crystallography, 1.96 Å (StCsm6’ (Csm6’) [2]): electron density consistent with a molecule of cA6 bound to the StCsm6’ dimer

B1: Streptococcus thermophilus Csm6’ (enzyme, UniProt A0A0A7HFE6 1-386, looked up)
chain: MRVLISAVGDTDPFRNFHDGSLIHIARKYRPEKVILIFSEHTAKKQGNIEKALFSIAPNYEPELIIHDPIISDNEVHIFDVMFQRFSDILQEYYTKEDEFILNLSSATPQIKSALFVINRLNGINVKAVQVSSPEHASNENIGHDNDENIDELIEVNKDNKVNFIDRTIEDNAEKFSQALLKKTARDFIEKFDYKAALDILDQLSDFPNLKSVREEIRDVVNCLSKQDVPKGLRHKKLKEEEQKILSAYLTIELQRERGNVSESFIRIKNLTEFILEDYIEKRYPGLIDEYCEDIQKYYLSLFDYSKLLKATKEFKLKRTIAPIIDMNSSRNKVAHSLSPLDSDAVKQLGIAMKTLKTLVREQYHFSQSDFNFYHDLNKILLTKLN
notes: Csm6’ ribonuclease of the type III-A CRISPR system of Streptococcus thermophilus; 386 residues in the monomer (CARF 1-173, 6H 174-239, HEPN 240-386); Cloned in pEV5HisTEV between NcoI and BamHI; Crystallised with cA6 (8PE3) and without (8PCW); also called StCsm6’; WT StCsm6’; source: E. coli C43 (DE3), purified (HisTrap, TEV cleavage, second IMAC, SEC)
stoichiometry N [3]: 2

B2: StCsm6’ variant C223A:C292A:N209C:D88C, MTSL spin-labelled (enzyme, Streptococcus thermophilus, UniProt A0A0A7HFE6 1-386, looked up)
chain: MRVLISAVGDTDPFRNFHDGSLIHIARKYRPEKVILIFSEHTAKKQGNIEKALFSIAPNYEPELIIHDPIISDNEVHIFDVMFQRFSCILQEYYTKEDEFILNLSSATPQIKSALFVINRLNGINVKAVQVSSPEHASNENIGHDNDENIDELIEVNKDNKVNFIDRTIEDNAEKFSQALLKKTARDFIEKFDYKAALDILDQLSDFPCLKSVREEIRDVVNALSKQDVPKGLRHKKLKEEEQKILSAYLTIELQRERGNVSESFIRIKNLTEFILEDYIEKRYPGLIDEYAEDIQKYYLSLFDYSKLLKATKEFKLKRTIAPIIDMNSSRNKVAHSLSPLDSDAVKQLGIAMKTLKTLVREQYHFSQSDFNFYHDLNKILLTKLN
modifications: MTSL spin-labelled cysteine side chain R1 at 88 and 209
notes: Csm6’ ribonuclease of Streptococcus thermophilus, 386 residues in the monomer, with four substitutions; parent as m1; Variants were expressed and purified as described for the WT protein; also called D88C/N209C; D88R1/N209R1; source: E. coli C43 (DE3), purified as the WT protein, then spin-labelled with MTSL
binding result [4]: binds

B3: StCsm6’ variant C223A:C292A:N209C:R85C, MTSL spin-labelled (enzyme, Streptococcus thermophilus, UniProt A0A0A7HFE6 1-386, looked up)
chain: MRVLISAVGDTDPFRNFHDGSLIHIARKYRPEKVILIFSEHTAKKQGNIEKALFSIAPNYEPELIIHDPIISDNEVHIFDVMFQCFSDILQEYYTKEDEFILNLSSATPQIKSALFVINRLNGINVKAVQVSSPEHASNENIGHDNDENIDELIEVNKDNKVNFIDRTIEDNAEKFSQALLKKTARDFIEKFDYKAALDILDQLSDFPCLKSVREEIRDVVNALSKQDVPKGLRHKKLKEEEQKILSAYLTIELQRERGNVSESFIRIKNLTEFILEDYIEKRYPGLIDEYAEDIQKYYLSLFDYSKLLKATKEFKLKRTIAPIIDMNSSRNKVAHSLSPLDSDAVKQLGIAMKTLKTLVREQYHFSQSDFNFYHDLNKILLTKLN
modifications: MTSL spin-labelled cysteine side chain R1 at 85 and 209
notes: Csm6’ ribonuclease of Streptococcus thermophilus, 386 residues in the monomer, with four substitutions; parent as m1; Variants were expressed and purified as described for the WT protein; also called R85C/N209C; R85R1/N209R1; source: E. coli C43 (DE3), purified as the WT protein, then spin-labelled with MTSL
binding result [4]: binds
